# Measured values: the DeepSol protein solubility set
# Test: soluble on expression in E. coli; label from the status in PepcDB or PDB records
row,Sequence,soluble on expression in E. coli
1,MFGISFSELLLVGLVALLVLGPERLPGAARTAGLWIGRLKRSFNTIKQEVEREIGADEIRRQLHNEHILSMEREAQKLLAPLTGQNPPQETPPPAAESPAPSVPTPPPTSTPAVPPADAAAPPAVAASTPPSPPSETPRNPLEHHHHHH,not soluble
2,MSLIIMKAITVLSGGLDSTVVTLIAKDLGYEVTAITFNYGQRAAKREINSAKKICEILGIEHIVVDLPFVKQFGKSSLITEKEIPTLKMEELDSEKAYETMKAVWVPARNVIMFGIASGFAEALDAEKIFIGINKEEGVTFPDNTIEFVEAFNKVLEYGTLNKVKIEAPLYDKTKEEIVKLGAELEKKLGVEVLKYSYSCYHDNGEDFLHCGKCESCMRRKRAFLMAGVEDKTKYIEEGHHHHHH,soluble
3,MGSDKIHHHHHHMANLNDFTFFVHVVDHGGFAPAARALNLPKSTLSKRVAELEKDLGVRLINRTSRHFAVTESGKDFYRHAAAMMIEAEAAENVVRGRLAEPSGTVRITASVPTAQLSLAPLLPQLALAYPKLRVTLHATDRFVDVIQDGFDLAVRDHFAPLPDSGLVQRRIGFQAKLIVASPLYLQGNGTPERPEDLDHHDGLLTSLASEGWVMERADGSTVSVSPRPRFVADESRVLREAALAGLGITTLPGKLCQQEIESGTLIRILPEWTAGKVMTTILMPHRRGQLPSVRATVDFIAERLVDG,not soluble
4,MRPTITALVLTYNGERLLDRCLGSLAFCDRILVVDSFSTDATVAIAQAAGAEVLQRKWEGPGPQFAFALEKISDGWIVSLDQDEICSEELRDSILAATAADSGEAGYWIPRRSWYFDRFLKHSGWYPDHLLRLFRAGRMRVEVSGAHYSFHPDGETGTLTGDILHYPYESFRQHLDKVNDYAQKGADDLRAKGKRGGLCAGLCHGAGRFIRIYIIKRGFLDGRAGFINAIHGAFYAFLKHLRIEEGDWGRPFEHKLEHHHHHH,soluble
5,TVGILWVNWDSRVRYANRAVESMLGYAPGQVVERPLIDFEPDLHMDRWLNLWKNARSSEDSAQVFETHCLRADGSLLPADVSLSFLRFR,not soluble
6,GSHMSRLLEDFRNQRYPNLQLRDLANHIVEFSQDQHGSRFIQQKLERATAAEKQMVFSEILAAAYSLMTDVFGNYVIQKFFEFGTPEQKNTLGMQVKGHVLQLALQMYGCRVIQKALESISPEQQQEIVHELDGHVLKCVKDQNGNHVVQKCIECVDPVALQFIINAFKGQVYSLSTHPYGCRVIQRILEHCTAEQTTPILDELHEHTEQLIQDQYGNYVIQHVLEHGKQEDKSILINSVRGKVLVLSQHKFASNVVEKCVTHATRGERTGLIDEVCTFNDNALHVMMKDQYANYVVQKMIDVSEPTQLKKLMTKIRKNMAAL,soluble
7,MDKEQRNIVVFNASKRELFTSSSGYKSLQKKLRAQWKIQSIKEELTLEKLQGVKLWITAGPREKFTAAELEVLKQYLDSGGALLVMIGEGGELKYDTNINFLLEEFGIMVNNDAVIRNVYYKYFHPKEALVSNGVLNREISRAAGKVVTGVIDEENTGNNSQALTFVYPYGATLNVMKPAVAILSTGSVCFPLNRPVLAFHHSKNAGKLAVLGSCHMFSDQYLDKEENSRIMDVVFQWLTTDSIHLNQIDAEDPEITDYMMLPDTGSLSERLRVCLQEGDENPRDFTSLFDMSLLKLHTNTLPSVLDAYKQLNVKHEALQLITPQFETPLPPLQPAVFQPAFRDLPPPMLDLFDLDETFSSEKVRLAQLSNKCTDDDLEFYVRKCGDILGVTGNLDKDKRDAKHILEHVFFQVVEFKKLNEEHDVDTAEARFSMY,soluble
8,MDKRISIAIDGPAAAGKSTVAKVVAKKLSYVYIDTGAMYRTITYAALEQKVDIENEEQLMEVVKNVKIEFQQGENTQLVFLNGQDVSEVIRTPEVTNRVSIVAKHRLVREEMVRRQQELAEKGGVVMDGRDIGTHVLPDAEVKIFMLASVEERAERRHLENMNKGFDSNLEQLKEEIAQRDKLDSEREVSPLKKADDALELDTTSLSIEEVVQKIMGIVLGVFAK,not soluble
9,MDQLSEKQIWYYHIIPEYQTEKSFYACVRRSGMIKFDTFYFPHMLSARETQRSIKFGDGVWSGCLYDPDIYTDGKISIQGVGGVLFPREAEIGGCVCLCLIFLIKLGLSTKYMKSHVSFDVSCDL,not soluble
10,MGSDKIHHHHHHMSEAILNICSVSKRFGDNLANDDISLSLGKGEIVALLGENGAGKTTLMSILFGHYVPDSGKVLVEGRELPPGKPRAAIRAGIGMVHQHFSLAPNLTVLENVMAGTERLWHLRSGTSAARRKLHRICQRFGLTVEPDARVGDLSVGEQQRVEILKALYNDAHILVLDEPTAVLTNLEAERLFSTLKDMAREGLSLIFISHKLDEVMAAANRIVVLRGGRKVAERLAKETNKAELAELMVGRRVARPVREPSTPGEVVLKVADVSVSIDGVERLKSIDFSLRAGEVLGIIGVSGNGQTTLAHLLSGTLRRDKGDLLLFGEPIGDLTVDDAVRAGIGRIPEDRNKEGAIGEMAIWENAVLERLPRFSRYGLVDRPSGQAFAGQIIDAFDVRGGRPTTRTRLLSGGNMQKLILGRNLMDRPRILLAAQPARGLDEGAVAAVHERLLEARRAGTAVLLISEDLEEVMALADRIQAIVNGRLSPPIAADSASATKLGLMMAGEWNEEHEVPHAF,not soluble
11,MGSDKIHHHHHHMDDITPSDIQAQAIAAIRDWFHSRTDEQQVFRLFGFAGTGKSTVLKFALDDLGLSPHAEDRPGVVTATFTGKAALVLRRKGTPARTIHSLIYSVIEATDEEIEEAGKRITQAELNARGLIGFDRTAAEAAIEAMRQTLRDMKKPRFALNPDSPAASAKLIVLDEVSMVGDEMARDLMSFERPILVLGDPGQLPPIKGEGAFTQAAPDIMLTEIHRQAAESAIIRLATMAREGQPIGFGQYDDHAWKMRMADVTPQQALRGGQVICGRNTTRFQLNNALRRAAGFGGSYLPTGADEKVICLKNQNDLGLINGMFLTLADIVDEGSVYFSATVTDEVGTPIGPPAKDGKPGRLMLYKGHFEDHVALDPHRHDRDWRDKKKLTEATFGWAITCHKAQGSQWENVIVWDDGLGRTEQDRRRWLYTAITRAERGLVILA,not soluble
12,MSLSKIIPFREEIFHQINQILESQKAFIFLWGKSGSGKSVLLQRLAKKYNVDFINENFKDQSFLKEKIEFLISQGQSLIILDEVGMYDYAMLESIRIYSDSISFVLSSHKKLNILKKEHFKSRLSACFKLKNISLLELDDYIKLKFGMNFSNKCLKFLQKISQGNLRYIDKTLKSFYEINSFFDKNKSQEYILKLSALENGLLREGHHHHHH,soluble
13,MLRTPNNRHKIDSILVLGTAQYDGVPSRQFAARLRHAAKLWRLHEIQHVYTVGGKLPGDRFTEAEVAREYLIKEGVDPDLIFVSAVGNDTVSSYEALDPEKLGRVLIVTDPNHSYRAVRIARRMGFDAKPSPTTYSPAKFPSIVYFLTLSHEWGGVVVQDVSRLLGERVADKVEASLRAIQGLLRPSRRARHEQLRRLKKLEHHHHHH,soluble
14,MAHHHHHHMGAPLREDPYNIKTPISDGTTIIGIIYEHGVMLACDTRTSSGTLVSNKCSRKINRINENIYACRSGASAHSQKVIELIKHFCLSMKCENRKKGRFHEDEVITDDLANEEDIDLSAINNPFGLAQNMDPNYVTKHKYFYEDKFMDFNPLVENVAHMTKKLLYANNHFLSCGLILGGYDKEKKQQLYSVNLNGSIVQRFDYAVSGSGSVYIQSYLQDKYKKNMSKKECFELILGCVKYAMYNDNSSGGIVRIVNMTKLFVEEFTVTNTQLHFDY,soluble
15,SIETTKGGSGSYPIKTIVVLVQENRSFDHTLGWFKELNREIDGVTKSDPKSNTVSSSDTNSLRVVFGDQSQYVNPDPGHSIQDIYEQVFGKPWDSGKPDPNPGHPNMSGFAQNAERNKKGMSSAVMNGFKPNALPVYKELVQNFAICDRWFASVPASTQPNRLYVHSATSHGATSNDKKLLLEGFPQKTIFESLDEAGFSFGIYYQFPPSTLFYRNLRKLKYLTHFHQYGIQFKKDCKEGKLPNYVVVEQRWFDLLSTPANDDHPSHDVSEGQKLVKEVYEALRSSPQWNEILFIITYDEHGGFYDHVPTPVDGVPNPDGILGPPPYNFEFNRLGVRVPTFFISPWIEPGTVIHGPNGPYPRSQYEHSSIPATVKTIFKLKDFLSKRDSWAGTFESVITRDSPRQDCPETLSTPIKLRGTMAKENAQLSEFQEDLVIMAAGLKGDYKNEELIHKLCKETCVADASKYVTNAFEKFLEESRKARDRGCDENDIVYCVDDDDDHVVIPPQSHSEASNAAAQPKTQTSFFNKLFSCFIRHD,soluble
16,MGSDKIHHHHHHMKVVIISGGNSPSYTLIKKELRESEYLIAADSGANTLFKYDVFPDYIIGDLDSIKTVALNYYKNRKVSILQYPPEKDYTDTEIAVNKAIDLGATEIVLLGCTGSRIDHLFGNIGMLLKCLKLGVSCVIKDDNNTIFLTETSIKIRGSLGKTFSIIPYSEEISDLTIIGAKYPLNNYKMKIGSAIGISNVFEEEEVKVQFNSGKILIVYPTD,not soluble
17,MEKEAFMEKLLSFMKEEAYKPLTVQELEEMLNITEAEEFKELVKALVALEEKGLIVRTRSDRYGIPEKMNLIKGKISAHAKGFAFLLPEDTSLSDVFIPPNELNTAMNGDIVMVRLNSQSSGSRQEGTVIRILERAIQRVVGTYTETRNFGFVIPDDKKITSDIFIPKNGKNGAAEGHKVVVKLTSYPEGRMNAEGEVETILGHKNDPGIDILSVIHKHGLPGEFPADAMEQASSTPDTIDEKDLKDRRDLRDQVIVTIDGADAKDLDDAVTVTKLDDGSYKLGVHIADVSHYVTENSPIDKEALERGTSVYLVDRVIPMIPHRLSNGICSLNPKVDRLTLSCEMTINSQGQVTEHEIFQSVIKTTERMTYSDVNKILVDDDEELKQKYEPLVPMFKDMERLAQILRDKRMDRGAVDFDFKEAKVLVDDEGAVKDVVIRERSVAEKLIEEFMLVANETVAEHFHWMNVPFIYRIHEEPNAEKLQKFLEFVTTFGYVVKGTAGNIHPRALQSILDAVRDRPEETVISTVMLRSMKQAKYDPQSLGHFGLSTEFYTHFTSPIRRYPDLIVHRLIRTYLINGKVDEATQEKWAERLPDIAEHTSSMERRAVDAERETDDLKKAEYMLDKIGEEFDGMISSVTNFGMFVELPNTIEGLVHVSFMTDDYYRFDEQHFAMIGERTGNVFRIGDEITVKVVDVNKDERNIDFEIVGMKGTPRRPRELDSSRSRKRGKPARKRVQSTNTPVSPAPSEEKGEWFTKPKKKKKKRGFQNAPKQKRKKKKLEHHHHHH,not soluble
18,MPHPNRTFKIVIAPDSFKSTATTSQAAAFIAEGIQAAVQSNECEGINVEITTVPMADGGEGTSSCFEGIDITLPTTDANGRLTEATYRFDPQSETAYIDVAAASGLPAVEDELRPLTADTYGTGVLIADAQTRGARR,not soluble
19,MNSSSASIPRTAHAAVPTAHASRYLQQLCKHWAHKFEAEFDPIQARIALPLGEARLTARPDALLIDLTATDAANMTTFQQVVISHIERFAFREELRFVWG,not soluble
20,SLQWECWPSLPCWRCFAASGRITLSIKRFTQNSRRHDMKITKINAIPLSYRLPEGKTVTMGVGSTIKRDAIIIRVETSEGITGYGEAHPGRSPGAITSLIHNTIAPMLIGMKATDCVGAWQRVHRMQLSSHGLGAGAALAISGIDMALWDIRGKAANMPLYELLGGSKRRIPAYAGGIALGYQPKESLAEEAQEYIARGYKALKLRIGDAARVDIERVRHVRKVLGDEVDILTDANTAYTMADARRVLPVLAEIQAGWLEEPFACNDFASYREVAKITPLVPIAAGENHYTRFEFGQMLDAGAVQVWQPDLSKCGGITEGIRIAAMASAYRIPINAHSSATGLNHAATIHFLAATENAGYFEACVSKFNPFRDMFGTSFEIGADGCVEPPDAPGLGIEVDESIFEKYPAVDGPGYVVKF,not soluble
